Test results taken from IntAct's records for PubMed 26320582.

Biological target: tom1_human TOM1 (UniProt O60784)
Sequence (O60784 whole entry): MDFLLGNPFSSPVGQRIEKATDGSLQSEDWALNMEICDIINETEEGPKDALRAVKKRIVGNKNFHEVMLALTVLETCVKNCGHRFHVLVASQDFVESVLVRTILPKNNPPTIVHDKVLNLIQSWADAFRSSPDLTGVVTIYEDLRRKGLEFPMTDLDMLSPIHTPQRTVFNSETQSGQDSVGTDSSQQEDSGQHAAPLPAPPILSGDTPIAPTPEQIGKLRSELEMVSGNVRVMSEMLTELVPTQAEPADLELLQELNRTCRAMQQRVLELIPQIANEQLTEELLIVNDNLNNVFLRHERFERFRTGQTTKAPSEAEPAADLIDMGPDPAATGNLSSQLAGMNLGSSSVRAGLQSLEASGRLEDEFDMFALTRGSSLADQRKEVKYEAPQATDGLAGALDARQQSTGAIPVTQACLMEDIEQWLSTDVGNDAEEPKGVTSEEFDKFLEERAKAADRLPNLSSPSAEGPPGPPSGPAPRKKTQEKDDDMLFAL

Toll-interacting protein (Homo sapiens) (from UniProt Q9H0E2-1) D20A;R23A
effect of a mutation on the interaction: decreasing interaction strength

Toll-interacting protein (Homo sapiens) (from UniProt Q9H0E2-1) F21A
effect of a mutation on the interaction: decreasing interaction strength

Toll-interacting protein (Homo sapiens) (from UniProt Q9H0E2-1) R9A;V12A
effect of a mutation on the interaction: decreasing interaction strength
